{"source": "patent US11819552B2", "about": "“Antibody-drug conjugates targeting uPARAP” (RIGSHOSPITALET, priority 2016, dated 2023)", "molecules": {"B1": {"name": "mAb 2h9: mouse monoclonal IgG1k anti-uPARAP antibody clone 2.h.9: F12, produced by hybridoma cell culture (protein)", "light": "DIQMTQSPASQSASLGESVTITCLASQTIGTWLAWYQQKPGKSPQLLIYAATTLTDGVPSRFSGAGSGTKFSLKISSLQAEDFASYFCQEFFSTPFTFGSGTKLELKRADAAPTVSIFPPSSEQLTSGGASVVCFLNNFYPKDINVKWKIDGGERQNGVLNSWTDQDSKDSTYSMSSTLTLTKDEYERHNSYTCEATHKTSTSPIVKSFNRNEC", "heavy": "QVQLQQPGTELVRPGLSVKLSCKASGYTFTSYWMNWVKQRPGQGLEWIGMIHPSNDEKRINQKFKDKATLTVDKFSSTVYMQVSSPTSEDSAVYYCARGGGDYVGDYALDFWGQGTSVTVSSAKTTPPSVYPLAPGSAAQTNSMVTLGCLVKGYFPEPVTVTWNSGSLSSGVHTFPAVLQSDLYTLSSSVTVPSSTWPSETVTCNVAHPASSTKVDKKIVPRDCGCKPCICTVPEVSSVFIFPPKPKDVLTITLTPKVTCVVVDISKDDPEVQFSWFVDDVEVHTAQTQPREEQFNSTFRSVSELPIMHQDWLNGKEFKCRVNSAAFPAPIEKTISKTKGRPKAPQVYTIPPPKEQMAKDKVSLTCMITDFFPEDITVEWQWNGQPAENYKNTQPIMDTDGSYFIYSKLNVQKSNWEAGNTFTCSVLHEGLHNHHTEKSLSHSPGK"}}, "target": "T1, uPARAP (Homo sapiens, UniProt Q9UBG0)", "T1 sequence (Q9UBG0 31-1479)": "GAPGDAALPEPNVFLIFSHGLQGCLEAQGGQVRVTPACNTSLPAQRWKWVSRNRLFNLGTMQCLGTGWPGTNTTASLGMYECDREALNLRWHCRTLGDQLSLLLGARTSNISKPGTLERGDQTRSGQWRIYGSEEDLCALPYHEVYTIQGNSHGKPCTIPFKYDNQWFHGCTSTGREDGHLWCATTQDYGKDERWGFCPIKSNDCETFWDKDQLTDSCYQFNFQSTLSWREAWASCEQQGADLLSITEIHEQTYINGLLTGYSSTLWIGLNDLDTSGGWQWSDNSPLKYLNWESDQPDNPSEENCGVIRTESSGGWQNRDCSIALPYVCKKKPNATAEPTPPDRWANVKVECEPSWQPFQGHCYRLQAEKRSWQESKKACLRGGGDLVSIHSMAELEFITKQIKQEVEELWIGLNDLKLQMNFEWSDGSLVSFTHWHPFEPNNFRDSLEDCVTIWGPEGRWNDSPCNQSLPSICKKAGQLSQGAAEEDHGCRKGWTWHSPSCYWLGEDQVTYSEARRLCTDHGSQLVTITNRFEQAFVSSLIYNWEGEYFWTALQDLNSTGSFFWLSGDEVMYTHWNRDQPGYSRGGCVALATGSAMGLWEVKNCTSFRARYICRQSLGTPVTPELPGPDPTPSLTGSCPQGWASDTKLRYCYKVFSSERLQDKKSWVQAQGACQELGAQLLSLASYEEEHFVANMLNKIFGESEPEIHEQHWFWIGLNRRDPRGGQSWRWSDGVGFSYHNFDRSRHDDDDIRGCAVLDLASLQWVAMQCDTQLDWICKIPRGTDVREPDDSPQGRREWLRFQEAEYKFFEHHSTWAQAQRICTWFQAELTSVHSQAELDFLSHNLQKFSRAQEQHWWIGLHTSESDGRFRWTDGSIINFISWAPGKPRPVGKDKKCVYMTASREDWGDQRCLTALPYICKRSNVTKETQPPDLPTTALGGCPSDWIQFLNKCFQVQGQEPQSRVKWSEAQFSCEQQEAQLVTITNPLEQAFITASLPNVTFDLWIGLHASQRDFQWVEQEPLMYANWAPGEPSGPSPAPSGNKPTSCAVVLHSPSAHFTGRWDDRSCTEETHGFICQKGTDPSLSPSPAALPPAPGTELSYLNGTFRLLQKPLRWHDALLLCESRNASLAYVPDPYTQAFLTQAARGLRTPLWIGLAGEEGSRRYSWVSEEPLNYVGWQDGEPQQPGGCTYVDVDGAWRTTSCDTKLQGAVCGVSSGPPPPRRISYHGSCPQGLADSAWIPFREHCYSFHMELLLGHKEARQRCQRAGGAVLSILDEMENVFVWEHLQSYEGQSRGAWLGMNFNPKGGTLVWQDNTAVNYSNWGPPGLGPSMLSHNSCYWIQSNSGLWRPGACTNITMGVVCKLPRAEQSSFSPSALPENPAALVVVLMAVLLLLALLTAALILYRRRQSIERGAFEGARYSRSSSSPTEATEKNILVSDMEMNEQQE", "test": "Western blotting of MG63 cell lysate", "format": "binding", "design": "endogenous in cells; host or cells: MG63 human osteosarcoma cells", "details": "detergent lysate of uPARAP-positive MG63 human osteosarcoma cells", "method": "For Western blotting, a detergent cell lysate prepared from uPARAP-positive MG63 human osteosarcoma cells was analyzed, using identical concentrations of “2h9 cloned” and “2h9 original” as the primary antibodies. […] No reaction is seen in the absence of primary antibody (negative control).", "data": [{"molecule": "B1", "values": [{"measurement": "Reactivity in Western blotting", "value": "react specifically with the uPARAP protein"}]}]}
